Results from patent US20250154277A1 (CONCEPT TO MEDICINE BIOTECH, published 2025).
Residue numbers refer to the chain shown, from its start.

T1: human 5T4-His protein (human, UniProt Q13641 32-355)
T1 construct: also called recombinant 5T4 protein (human 5T4-his tag); human 5T4 protein; not shown: His tag
T1 sequence (looked up): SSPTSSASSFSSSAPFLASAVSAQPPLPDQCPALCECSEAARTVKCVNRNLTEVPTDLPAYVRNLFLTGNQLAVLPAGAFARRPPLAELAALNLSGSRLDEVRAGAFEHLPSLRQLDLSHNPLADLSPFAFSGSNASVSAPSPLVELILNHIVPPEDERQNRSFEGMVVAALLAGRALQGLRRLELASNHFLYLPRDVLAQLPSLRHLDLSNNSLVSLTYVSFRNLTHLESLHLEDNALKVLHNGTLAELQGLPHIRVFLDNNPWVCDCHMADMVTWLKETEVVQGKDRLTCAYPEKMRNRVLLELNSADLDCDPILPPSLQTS

T2: cynomolgus 5T4 protein (cynomolgus monkey, UniProt Q4R8Y9 35-355, limits assumed)
T2 construct: Coated protein in ELISA; the screening step names a cyno 5T4-His protein; also called cyno 5T4; recombinant cyno 5T4-His protein
T2 sequence (looked up): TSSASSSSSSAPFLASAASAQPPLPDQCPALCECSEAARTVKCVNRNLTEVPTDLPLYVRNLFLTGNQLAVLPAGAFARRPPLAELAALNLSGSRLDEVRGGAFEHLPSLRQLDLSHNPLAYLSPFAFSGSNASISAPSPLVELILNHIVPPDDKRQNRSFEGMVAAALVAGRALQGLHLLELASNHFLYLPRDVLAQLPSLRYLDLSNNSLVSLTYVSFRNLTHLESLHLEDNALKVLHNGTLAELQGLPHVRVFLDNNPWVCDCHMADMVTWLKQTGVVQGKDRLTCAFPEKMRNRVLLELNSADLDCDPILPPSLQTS

B1: Hu286B4-8 (antibody, V domains shown)
VH: EVQLQESGPGLVKPSDTLSLTCAVSGYSISNNYYWNWIRQPPGKGLEWIGYITYDGSNNYNPSLKNRITMSRDTSKNQFSLKLSSVTAVDTAVYYCARGGGQLRFDYWGQGTTVTVSS
VL: DIQMTQSPSSLSASVGDRVTITCKASQSVSNEVTWYQQKPGKAPKMLIYYASNRYTGVPDRFSGSGYGTDFTFTISSLQPEDIATYYCQQDYSSPWTFGGGTKVEIK
notes: humanized
B2: Hu286B4-5 (antibody, V domains shown)
VH: B1 VH with I68V
VL: B1 VL with D1S, Q3V, A43S, Y87F
notes: humanized
B3: Hu286B4-3 (antibody, V domains shown)
VH: B1 VH with I68V
VL: B1 VL
notes: humanized
B4: Hu286B4-15 (antibody, V domains shown)
VH: B1 VH with I49M, M70V
VL: B1 VL with D1S, Q3V, A43S, Y87F
notes: humanized
B5: Hu286B4-18 (antibody, V domains shown)
VH: B1 VH with S30T, I49M, M70V, A97T
VL: B1 VL
notes: humanized
B6: Hu286B4-13 (antibody, V domains shown)
VH: B1 VH with I49M, M70V
VL: B1 VL
notes: humanized
B7: 449H9 chimeric antibody (antibody, V domains shown)
VH: QVQLQQSGAELVRPGSSVRISCKASGYAFSNYWMNWVKQRPGQGLEWIGQIYPGDGDTNYNGKFKNKATLTTDKSSSTAYMQLSSLTSEDSAVYFCARHYDYPYYYAMDYWGQGTSVTVSS
VL: DIQMTQSPSSLSASLGERVSLTCRASQDIGIALTWLQQEPDGTIKRLIYATSSLDSGVPKRFSGSRSGSDYTLTISSLESEDFVDYYCLQYIISPYTFGGGTKLEIK
notes: chimeric mAb
B8: 425G1 chimeric antibody (antibody, V domains shown)
VH: EVQLQQSGAELVKPGASVKLSCTASGFNIKDTYMHWVKQRPEQGLEWIGRIDPANGHTIFASKFQGKATITADTSSNTAYMQLSSLTSGDTAVYYCGLFTMVVVPWYFDVWGTGTTVTVSS
VL: DIVMTQSHKFMSTSVGDRVSITCKASQDVSTAVAWYQQKPGQSPKLLIYWASTRHTGVPDRFTGSGSGTDYTLTISSVQAEDLALYYCQQHYSSPLTFGAGTKLELK
notes: chimeric mAb
B9: 367B8 chimeric antibody (antibody, V domains shown)
VH: QVQLQQPGTELVKPGASVKLSCKASGYTFTSYWMHWVKQRPEQGLEWIGNINPSNGNTNYNENFKSQATLTVDKSSSTAYMQLSSLTSEDSAVYYCARGGWDFDYWGQGTTLTVSS
VL: QVVLTQSPAIMSASPGEKVTMTCSASSSVRYIHWYQQRSGTSPKRWIYDTSKLTSGVPVRFSGSGSGTSYSLTISSMEAEDAATYYCQQWTSKPPWTFGGGTKLEIR
notes: chimeric mAb
B10: 389G2 chimeric antibody (antibody, V domains shown)
VH: B9 VH with N63R, Q67K, A92T
VL: B9 VL with Y70F, R107K
notes: chimeric mAb
B11: 353H11 chimeric antibody (antibody, V domains shown)
VH: B9 VH with G26D, N63K, S66N, Q67K, S88F
VL: B9 VL with I32M, V59A, Q89L
notes: chimeric mAb
B12: Hu286B4-17 (antibody, V domains shown)
VH: B1 VH with S30T, I49M, M70V, A97T
VL: B1 VL with Y67S
notes: humanized
B13: Hu286B4-6 (antibody, V domains shown)
VH: B1 VH
VL: B1 VL with M46L, Y67S
notes: humanized
B14: Hu286B4-12 (antibody, V domains shown)
VH: B1 VH with I49M, M70V
VL: B1 VL with Y67S
notes: humanized
B15: Hu286B4-9 (antibody, V domains shown)
VH: B1 VH
VL: B1 VL with A43S, Y87F
notes: humanized
B16: Hu286B4-1 (antibody, V domains shown)
VH: B1 VH with I68V
VL: B1 VL with M46L, Y67S
notes: humanized
B17: Hu286B4-19 (antibody, V domains shown)
VH: B1 VH with S30T, I49M, M70V, A97T
VL: B1 VL with A43S, Y87F
notes: humanized
B18: Hu286B4-7 (antibody, V domains shown)
VH: B1 VH
VL: B1 VL with Y67S
notes: humanized
B19: Hu286B4-11 (antibody, V domains shown)
VH: B1 VH with I49M, M70V
VL: B1 VL with M46L, Y67S
notes: humanized
B20: Hu286B4-2 (antibody, V domains shown)
VH: B1 VH with I68V
VL: B1 VL with Y67S
notes: humanized
B21: Hu286B4-16 (antibody, V domains shown)
VH: B1 VH with S30T, I49M, M70V, A97T
VL: B1 VL with M46L, Y67S
notes: humanized
B22: Hu286B4-14 (antibody, V domains shown)
VH: B1 VH with I49M, M70V
VL: B1 VL with A43S, Y87F
notes: humanized
B23: Hu286B4-20 (antibody, V domains shown)
VH: B1 VH with S30T, I49M, M70V, A97T
VL: B1 VL with D1S, Q3V, A43S, Y87F
notes: humanized
B24: Hu286B4-4 (antibody, V domains shown)
VH: B1 VH with I68V
VL: B1 VL with A43S, Y87F
notes: humanized

What follows are binders tested against T1, human 5T4-His protein (assay: SPR Biacore, Protein A capture).
Experimental: (§1) The binding of the 286B4 humanized antibodies to recombinant 5T4 protein (human 5T4-his tag) was tested with Biacore using a capture method. The mAbs were captured using Protein A chip. A serial dilution of human 5T4-his tag protein was injected over captured antibody for 3 mins at a flow rate of 30 μl/min. The antigen was allowed to dissociate for 280-800 s. All the experiments were carried out on a Biacore T200. Data analysis was carried out using the Biacore T200 evaluation software.

Binder	Kd [pM]	koff [s⁻¹]	kon [M⁻¹ s⁻¹]
B1	1080	0.000103	94600
B2	1200	0.000128	106000
B3	1140	0.000107	93400
B4	1040	0.000114	110000
B5	1180	0.000133	113000
B6	1120	0.000107	95500

Biological target: T1, human 5T4-His protein
Assay: SPR Biacore, Protein A capture
Remark: another data set of the same source
Experimental: as §1, with “the chimeric mAbs from these clones against” for “the 286B4 humanized antibodies to”, “for 2-3” for “for 3”, “for 360-1000” for “for 280-800”, “using” for “using the”

Binder	Kd [pM]	koff [s⁻¹]	kon [M⁻¹ s⁻¹]
B7	381	0.000115	301000
B8	1640	0.000215	131000
B9	285	0.000167	588000
B10	490	0.000138	282000
B11	240	9.63e-05	401000

These binders were tested against T2, cynomolgus 5T4 protein (assay: ELISA, coated antigen).
Experimental: (§2) ELISA testing was carried out to evaluate the binding of chimeric antibodies to human and cynomolgus, respectively. The antibody portion of naptumomab (NeoTX) that targets 5T4 (abbreviated as naptumomab in the present disclosure), was generated and used as a benchmark.
(§3) Briefly, microtiter plates were coated with human and cynomolgus 5T4 proteins at […] in PBS, 100 μl/well at 4° C. overnight, then blocked with 150 μl/well of 1% BSA. Serial dilutions of chimeric antibodies were added to each well and incubated for 1 hour at RT. The plates were washed with PBS/Tween and then incubate with mouse-anti-human IgG Fc antibody conjugated with Horse Radish Peroxidase (HRP) for 30 mins at RT. After washing, the plates were developed with TMB substrate and analyzed by spectrophotometer at OD 450 nm. All the 5T4 chimeric mAbs bound to human and cynomolgus 5T4 (FIG. 1-2 and Table 3).

Binder	EC50 [pM]
B7	100
B8	230
B9	130
B10	190
B11	130

Each binder was assayed against T1, human 5T4-His protein (assay: ELISA, coated antigen).
Experimental: as §2, §3

Binder	EC50 [pM]
B7	370
B8	290
B9	860
B10	230
B11	730

What follows are binders tested against T1, human 5T4-His protein (assay: ELISA, coated 5T4-His).
Experimental: To evaluate the binding activity of clones, the 286B4 chimeric antibody along with 286B4 humanized mAbs were subjected to ELISA test.
Briefly, microtiter plates were coated with human 5T4-His protein at 1 μg/ml in PBS, 100 μl/well at 4° C. overnight, then blocked with 150 μl/well of 1% BSA. 4-fold dilutions of tested antibodies starting from 20 nM were added to each well and incubated for 1 hour at 37° C. The plates were washed with PBS/Tween and then incubated with Goat Anti-Human IgG-HRP for 30 mins at 37° C. After washing, the plates were developed with TMB substrate and analyzed by spectrophotometer at OD 450 nm. As shown in FIG. 16 and Table 15, most of the humanized clones bound to human 5T4 with high potency.

Binder	EC50 [pM]
B1	680
B12	710
B2	280
B13	2640
B3	510
B14	890
B15	330
B16	3810
B17	270
B18	1760
B19	1420
B20	1350
B4	250
B21	4030
B22	300
B23	420
B5	420
B6	570
B24	460
